{"source": "patent US20260224721A1", "about": "“ANTI-CD70 ANTIBODY-DRUG CONJUGATES” (Ambrx, Inc., priority 2023, published 2026)", "molecules": {"B1": {"name": "anti-CD70-AS269 ADC (antibody, human IgG1, kappa, V domains shown)", "VH": "EVQLVQSGAEVKKPGATVKISCKVSGYTFTDYYMNWVQQAPGKGLEWMGIINPYNGGTHYNQKFKGRVTITADTSTDTAYMELSSLRSEDTAVYYCATSGYDLYFDYWGQGTLVTVSS", "VL": "EIVMTQSPATLSVSPGERATLSCKASQNVGTAVAWYQQKPGQAPRLLIYSAFNRYNGIPARFSGSGPGTDFTLTISSLQSEDFAVYYCQQYSTYPLTFGGGTKVEIKR", "modifications": "para-acetyl-L-phenylalanine (pAF) at position 114 (Kabat numbering; the X of SEQ ID NO: 3), carrying drug-linker AS269 via an oxime bond", "notes": "Antibody-drug conjugate: humanized IgG1 mAb with one AS269 drug-linker per heavy chain, DAR about 2; also called ARX305; aCD70-AS269"}}, "key": {"MDR/P-gp [1]": {"molecular_target": "T1, MDR/P-gp (Homo sapiens, UniProt P08183)", "T1 sequence (P08183 whole entry)": "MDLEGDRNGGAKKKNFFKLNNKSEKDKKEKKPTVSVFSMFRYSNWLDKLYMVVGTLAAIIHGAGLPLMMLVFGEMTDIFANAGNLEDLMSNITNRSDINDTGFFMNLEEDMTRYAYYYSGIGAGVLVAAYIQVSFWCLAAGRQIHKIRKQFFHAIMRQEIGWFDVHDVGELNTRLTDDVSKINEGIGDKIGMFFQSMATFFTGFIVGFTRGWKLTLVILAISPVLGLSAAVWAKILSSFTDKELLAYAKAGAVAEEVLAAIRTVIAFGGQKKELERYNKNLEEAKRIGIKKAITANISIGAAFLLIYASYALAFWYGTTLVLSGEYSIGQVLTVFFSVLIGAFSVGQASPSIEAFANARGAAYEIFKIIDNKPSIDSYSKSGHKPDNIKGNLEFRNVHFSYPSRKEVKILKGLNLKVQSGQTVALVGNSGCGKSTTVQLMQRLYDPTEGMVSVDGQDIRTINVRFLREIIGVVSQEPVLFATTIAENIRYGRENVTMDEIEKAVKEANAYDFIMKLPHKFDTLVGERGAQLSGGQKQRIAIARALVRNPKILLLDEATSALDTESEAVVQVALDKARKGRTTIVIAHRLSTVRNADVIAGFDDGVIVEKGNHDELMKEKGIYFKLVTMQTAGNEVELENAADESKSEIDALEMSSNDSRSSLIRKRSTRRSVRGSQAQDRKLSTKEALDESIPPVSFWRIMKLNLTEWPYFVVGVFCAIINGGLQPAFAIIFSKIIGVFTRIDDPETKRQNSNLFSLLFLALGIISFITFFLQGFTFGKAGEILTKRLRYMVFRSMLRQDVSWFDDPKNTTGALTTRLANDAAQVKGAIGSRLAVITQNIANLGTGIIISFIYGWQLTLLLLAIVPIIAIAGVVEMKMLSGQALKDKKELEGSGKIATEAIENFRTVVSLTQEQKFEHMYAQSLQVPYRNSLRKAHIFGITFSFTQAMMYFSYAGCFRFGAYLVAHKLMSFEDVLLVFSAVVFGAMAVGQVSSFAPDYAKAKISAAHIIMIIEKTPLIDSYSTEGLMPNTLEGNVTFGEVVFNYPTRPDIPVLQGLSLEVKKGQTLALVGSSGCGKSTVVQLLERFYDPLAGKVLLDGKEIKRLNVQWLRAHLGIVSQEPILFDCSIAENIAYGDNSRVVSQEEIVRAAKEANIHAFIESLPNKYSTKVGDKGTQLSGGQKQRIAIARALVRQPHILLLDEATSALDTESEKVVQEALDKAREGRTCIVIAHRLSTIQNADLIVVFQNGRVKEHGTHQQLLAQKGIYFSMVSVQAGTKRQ", "conditions": "cited from earlier work"}, "BCRP": {"molecular_target": "T2, BCRP (Homo sapiens, UniProt Q9UNQ0)", "T2 sequence (Q9UNQ0 1-655)": "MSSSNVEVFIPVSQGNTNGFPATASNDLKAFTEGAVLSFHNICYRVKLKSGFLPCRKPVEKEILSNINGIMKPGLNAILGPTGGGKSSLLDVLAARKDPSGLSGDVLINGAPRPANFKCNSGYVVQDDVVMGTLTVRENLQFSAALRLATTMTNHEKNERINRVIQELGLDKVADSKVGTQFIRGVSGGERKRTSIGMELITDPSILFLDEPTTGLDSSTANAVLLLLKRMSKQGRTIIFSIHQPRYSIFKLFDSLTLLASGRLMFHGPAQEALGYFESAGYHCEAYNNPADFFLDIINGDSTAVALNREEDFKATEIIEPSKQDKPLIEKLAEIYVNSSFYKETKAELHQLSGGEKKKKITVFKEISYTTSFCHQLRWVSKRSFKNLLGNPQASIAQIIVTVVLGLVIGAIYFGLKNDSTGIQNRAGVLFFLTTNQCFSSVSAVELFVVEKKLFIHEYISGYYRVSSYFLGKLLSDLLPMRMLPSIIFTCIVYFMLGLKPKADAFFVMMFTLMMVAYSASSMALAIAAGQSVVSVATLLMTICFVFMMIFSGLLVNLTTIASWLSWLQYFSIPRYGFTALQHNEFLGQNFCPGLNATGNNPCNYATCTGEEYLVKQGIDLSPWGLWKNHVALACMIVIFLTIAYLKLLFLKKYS", "test": "BCRP substrate assessment", "type": "in vitro ADME", "conditions": "data not shown"}, "MDR/P-gp [2]": {"molecular_target": "T1, MDR/P-gp", "test": "MDR pump substrate assessment", "type": "in vitro ADME", "conditions": "data not shown"}, "[3]": {"system": "786-OS3 renal carcinoma cells", "test": "786-OS3/PBMC renal cell carcinoma xenograft model, ARX305 and pembrolizumab", "type": "in vivo, NCG mice", "conditions": "study day 36, 5.0 mg/kg dose of pembrolizumab alone, IP QW × 4", "protocol": "ARX305 in combination with a checkpoint inhibitor, such as a PD-1/PD-L1 inhibitor, were tested in a renal cell carcinoma (RCC) model. For RCC, ARX305 in combination of pembrolizumab (PD-1 inhibitor) were evaluated in a cell line-derived xenograft tumor model: 786-OS3.\nFemale NCG mice were housed five (5) per cage in a pathogen-free, limited access room. Food and water were provided ad libitum. Mice were subcutaneously inoculated in the right flank with 5×10^6 786-OS3 renal carcinoma cells mixed with Matrigel. Tumor volumes were measured twice weekly. When tumors reached from about 175 mm^3 to about 200 mm^3 in size, mice were randomized into five (5) groups of 10 mice with approximately equal average tumor volumes. Cryopreserved peripheral blood mononuclear cells (PBMCs) from a single healthy donor were thawed and cultured in Roswell Park Memorial Institut (RPMI) medium+10% fetal bovine serum at 37° C. for 24 hours. PBMCs were harvested and intraperitoneally injected into tumor-bearing mice (10^7/mouse). After 24 hours, mice were injected with vehicle, pembrolizumab (5 mg/kg), ARX305 (0.3 mg/kg), or pembrolizumab (5 mg/kg)+ARX305 (0.3 mg/kg). Dosing was repeated for pembrolizumab weekly for a total of 4 doses and ARX305 every other week for a total of 2 doses. […] Tumor volumes were continually measured twice weekly and FIG. 15 show mean tumor volumes +/−SEM for each group."}, "cynomolgus CD70 protein [4]": {"molecular_target": "T3, cynomolgus CD70 protein (cynomolgus, UniProt A0A2K5WTU9 39-190)", "T3 chain": "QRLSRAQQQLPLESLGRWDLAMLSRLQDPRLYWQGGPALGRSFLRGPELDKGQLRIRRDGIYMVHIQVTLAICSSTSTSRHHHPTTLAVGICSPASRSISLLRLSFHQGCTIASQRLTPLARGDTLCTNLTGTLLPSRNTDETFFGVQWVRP", "test": "SPR"}, "human CD70 protein": {"molecular_target": "T4, human CD70 protein (human, UniProt P32970 39-193)", "T4 chain": "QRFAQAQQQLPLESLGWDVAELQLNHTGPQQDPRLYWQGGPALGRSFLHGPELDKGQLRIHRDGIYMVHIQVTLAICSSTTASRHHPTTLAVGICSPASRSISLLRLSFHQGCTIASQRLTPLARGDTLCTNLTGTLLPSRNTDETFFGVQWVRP", "test": "SPR"}, "mouse CD70 protein": {"molecular_target": "T5, mouse CD70 protein (mouse, UniProt O55237 45-195, limits assumed)", "T5 construct": "SPR analyte; construct not described; also called rodent CD70", "T5 sequence (looked up)": "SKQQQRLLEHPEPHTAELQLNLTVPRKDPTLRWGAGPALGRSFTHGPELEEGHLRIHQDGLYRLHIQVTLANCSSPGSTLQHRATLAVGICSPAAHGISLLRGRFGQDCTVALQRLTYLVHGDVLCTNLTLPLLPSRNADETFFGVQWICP", "test": "SPR (Biacore), ADC captured by anti-human IgG (Fc) on CM5 chip, CD70 as analyte", "protocol": "(§1) Surface plasmon resonance assays were developed in which anti-human IgG (Fc) was diluted to 25 μg/mL in immobilization buffer ([…] Sodium Acetate, pH 5.0) and injected to an activated CM5 sensor chip for 360 seconds at a flow rate of 10 μL/minute. […] After each cycle of interaction analysis, the sensor chip surface was regenerated with 3M magnesium chloride at a flow rate of 20 uL/minute for 30 seconds. Affinity analysis was performed using Biacore Insight Evaluation software, reference channel was used for background subtraction, and a 1:1 binding method was used for curve fitting."}, "[5]": {"molecular_target": "T6, CD70 on the surface of human tumor cell lines (human, UniProt P32970 1-193)", "T6 sequence (looked up)": "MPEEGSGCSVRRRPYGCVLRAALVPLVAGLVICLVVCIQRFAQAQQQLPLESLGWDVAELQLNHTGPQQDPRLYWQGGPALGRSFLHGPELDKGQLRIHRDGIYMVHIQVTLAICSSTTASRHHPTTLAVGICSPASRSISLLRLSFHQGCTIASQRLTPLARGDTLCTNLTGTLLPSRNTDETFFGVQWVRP", "test": "cell-based or functional assay"}, "cynomolgus CD70 protein [6]": {"molecular_target": "T7, cynomolgus CD70 protein (cynomolgus, UniProt A0A2K5WTU9 39-190)", "T7 construct": "SPR analyte; construct not described", "T7 sequence": "T3 chain", "test": "SPR (Biacore), ADC captured by anti-human IgG (Fc) on CM5 chip, CD70 as analyte, 1:1 fit", "protocol": "as §1"}}, "note": "Square brackets hold non-standard residues; d marks the D form. Peptide text beside a SMILES is read from it. * marks the point of attachment. Dolaproine = CO[C@@H]([C@@H]1CCCN1)[C@@H](C)C(=O)O; Dil = CC[C@H](C)[C@H](NC)[C@@H](CC(=O)O)OC; X1 = CC(C)[C@@H](C(=O)*)N(C)CCOCCOCCOCCON; X2 = C[C@@H](N*)[C@@H](O)c1ccccc1; NMeV = CN[C@H](C(=O)O)C(C)C"}
{"molecule": "CC[C@H](C)[C@@H]([C@@H](CC(=O)N1CCC[C@H]1[C@H](OC)[C@@H](C)C(=O)N[C@H](C)[C@@H](O)c1ccccc1)OC)N(C)C(=O)[C@@H](NC(=O)[C@@H](NC)C(C)C)C(C)C", "note": "[MMAE, Monomethyl auristatin E] (H-[NMeV]V[Dil][Dolaproine]-X2)", "values": [{"measurement": "substrate for MDR pumps", "setting": "MDR/P-gp [1]", "value": "known substrate"}]}
{"molecule": "CC[C@H](C)[C@@H]([C@@H](CC(=O)N1CCC[C@H]1[C@H](OC)[C@@H](C)C(=O)N[C@@H](Cc1ccccc1)C(=O)O)OC)N(C)C(=O)[C@@H](NC(=O)[C@H](C(C)C)N(C)CCOCCOCCOCCON)C(C)C", "note": "[AS269, ((2R,3R)-3-((S)-1-((3R,4S,5S)-4-((S)-2-((S)-14-(aminooxy)-2-isopropyl-3-methyl-6,9,12-trioxa-3-azatetradecanamido)-N,3-dimethylbutanamido)-3-methoxy-5-methylheptanoyl)pyrrolidin-2-yl)-3-methoxy-2-methylpropanoyl)-L-phenylalanine] (X1-V[Dil][Dolaproine]F-OH)", "values": [{"measurement": "substrate for BCRP", "setting": "BCRP", "value": "not a substrate"}, {"measurement": "substrate for MDR/P-gp", "setting": "MDR/P-gp [2]", "value": "not a substrate"}]}
{"molecule": "pembrolizumab: PD-1 inhibitor [reference compound]", "values": [{"measurement": "tumor growth inhibition (TGI)", "setting": "[3]", "value": 6, "unit": "%"}]}
{"molecule": "B1", "values": [{"measurement": "Kd", "setting": "cynomolgus CD70 protein [4]", "value": 0.684, "unit": "nM"}, {"measurement": "Kd", "setting": "human CD70 protein", "value": 0.228, "unit": "nM"}, {"measurement": "binding result", "setting": "mouse CD70 protein", "value": "no binding"}, {"measurement": "Cytotoxic Potency (IC50, nM), 786-O cells (CD70 surface expression 133,000)", "setting": "[5]", "value": 0.167, "unit": "nM"}, {"measurement": "Cytotoxic Potency (IC50, nM), C666-1 cells (CD70 surface expression 9,200)", "setting": "[5]", "value": "> 10", "unit": "nM"}, {"measurement": "Cytotoxic Potency (IC50, nM), Caki-1 cells (CD70 surface expression 107,000)", "setting": "[5]", "value": 0.125, "unit": "nM"}, {"measurement": "Cytotoxic Potency (IC50, nM), Hs 611.T cells (CD70 surface expression 6,600)", "setting": "[5]", "value": "> 10", "unit": "nM"}, {"measurement": "Cytotoxic Potency (IC50, nM), Hs766T cells (CD70 surface expression 9,500)", "setting": "[5]", "value": "> 10", "unit": "nM"}, {"measurement": "Cytotoxic Potency (IC50, nM), KMS11 cells (CD70 surface expression 9,400)", "setting": "[5]", "value": "> 10", "unit": "nM"}, {"measurement": "Cytotoxic Potency (IC50, nM), NCI-H40 cells (CD70 surface expression 14,900)", "setting": "[5]", "value": 0.18, "unit": "nM"}, {"measurement": "Cytotoxic Potency (IC50, nM), NCI-H929 cells (CD70 surface expression 0)", "setting": "[5]", "value": "> 10", "unit": "nM"}, {"measurement": "Cytotoxic Potency (IC50, nM), REC-1 cells (CD70 surface expression 17,300)", "setting": "[5]", "value": 0.18, "unit": "nM"}, {"measurement": "Cytotoxic Potency (IC50, nM), Raji cells (CD70 surface expression 17,700)", "setting": "[5]", "value": "> 10", "unit": "nM"}, {"measurement": "Cytotoxic Potency (IC50, nM), U251MG cells (CD70 surface expression 65,800)", "setting": "[5]", "value": 0.04, "unit": "nM"}, {"measurement": "Cytotoxic Potency (IC50, nM), U266 cells (CD70 surface expression 65,000)", "setting": "[5]", "value": 0.025, "unit": "nM"}, {"measurement": "fold difference of affinity between human and cynomolgus CD70", "setting": "cynomolgus CD70 protein [6]", "value": "≤ 3", "unit": "fold"}]}
